Data taken from PMC5737516.
Where two headings read alike, the source gives them in different places.

T1: M1BP (UniProt Q9VHM3 1-418)
T1 sequence: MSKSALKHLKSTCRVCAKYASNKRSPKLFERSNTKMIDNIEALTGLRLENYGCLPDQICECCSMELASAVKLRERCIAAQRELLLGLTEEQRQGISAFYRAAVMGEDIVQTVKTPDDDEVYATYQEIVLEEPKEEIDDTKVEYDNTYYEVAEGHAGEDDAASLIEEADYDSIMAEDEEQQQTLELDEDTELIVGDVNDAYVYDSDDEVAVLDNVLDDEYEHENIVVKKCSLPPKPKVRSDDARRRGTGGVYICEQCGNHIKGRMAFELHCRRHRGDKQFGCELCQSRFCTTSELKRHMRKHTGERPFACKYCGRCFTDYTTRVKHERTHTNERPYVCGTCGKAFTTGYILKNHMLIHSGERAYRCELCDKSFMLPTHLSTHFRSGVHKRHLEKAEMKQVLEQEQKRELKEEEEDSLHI

T2: M1BP;TRF2 (Drosophila melanogaster?;Drosophila …, UniProt Q9VHM3;Q9XZD9 1-418;1-632, |)
T2 sequence 1: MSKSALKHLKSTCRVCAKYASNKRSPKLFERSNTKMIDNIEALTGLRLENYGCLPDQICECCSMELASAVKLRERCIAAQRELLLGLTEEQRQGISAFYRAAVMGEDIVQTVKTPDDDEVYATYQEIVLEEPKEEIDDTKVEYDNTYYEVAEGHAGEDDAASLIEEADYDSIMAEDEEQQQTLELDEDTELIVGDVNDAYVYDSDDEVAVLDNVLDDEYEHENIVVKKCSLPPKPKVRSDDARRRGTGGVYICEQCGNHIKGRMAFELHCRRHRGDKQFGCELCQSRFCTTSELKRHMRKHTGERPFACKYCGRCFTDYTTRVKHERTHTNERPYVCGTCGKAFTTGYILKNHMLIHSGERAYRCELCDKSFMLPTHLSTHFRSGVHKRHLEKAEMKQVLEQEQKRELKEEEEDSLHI
T2 sequence 2: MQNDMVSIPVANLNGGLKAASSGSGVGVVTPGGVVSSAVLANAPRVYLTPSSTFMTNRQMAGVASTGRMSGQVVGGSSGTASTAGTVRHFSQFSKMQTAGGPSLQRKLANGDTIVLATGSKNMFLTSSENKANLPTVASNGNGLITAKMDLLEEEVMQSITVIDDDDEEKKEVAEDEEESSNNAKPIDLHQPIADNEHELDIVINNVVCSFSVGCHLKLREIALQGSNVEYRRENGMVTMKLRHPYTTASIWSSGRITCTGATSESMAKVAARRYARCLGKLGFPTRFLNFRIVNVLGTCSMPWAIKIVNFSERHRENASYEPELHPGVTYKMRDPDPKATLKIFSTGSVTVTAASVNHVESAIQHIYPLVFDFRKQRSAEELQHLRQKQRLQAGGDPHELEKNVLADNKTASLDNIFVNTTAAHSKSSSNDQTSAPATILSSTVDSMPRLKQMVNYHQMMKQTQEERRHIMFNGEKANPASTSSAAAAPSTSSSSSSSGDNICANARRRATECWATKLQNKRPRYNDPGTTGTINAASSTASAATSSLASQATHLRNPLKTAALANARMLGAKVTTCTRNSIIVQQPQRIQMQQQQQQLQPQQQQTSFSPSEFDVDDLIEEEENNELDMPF

B1: RpLP1 wtMotif1 (-36 to +14) (dsDNA)
DNA 1: TTCGTCATCGGCGCGGTCACACTGCATATCAACTGCTCTTTCCGGTTTAG
DNA 2: CTAAACCGGAAAGAGCAGTTGATATGCAGTGTGACCGCGCCGATGACGAA
B2: RpLP1 mutMotif1 (-36 to +14) (dsDNA)
DNA 1: TTCGTCATCGGCGCCGTCAGAGTGCATATCAACTGCTCTTTCCGGTTTAG
DNA 2: CTAAACCGGAAAGAGCAGTTGATATGCACTCTGACGGCGCCGATGACGAA
B3: RpL30 wtMotif1 (-52 to +8) (dsDNA)
DNA 1: CCCGTCGGTCACACCAACACAAACGTGGTACCCATTTCCGCCTGTTCTTCCTCTTTCTTT
DNA 2: AAAGAAAGAGGAAGAACAGGCGGAAATGGGTACCACGTTTGTGTTGGTGTGACCGACGGG
B4: RpL30 mutMotif1 (-52 to +8) (dsDNA)
DNA 1: CCCGTCCGTCAGAGCAACACAAACGTGGTACCCATTTCCGCCTGTTCTTCCTCTTTCTTT
DNA 2: AAAGAAAGAGGAAGAACAGGCGGAAATGGGTACCACGTTTGTGTTGCTCTGACGGACGGG

How the values were obtained:
Experiment in all cases: pull-down
M1BP = target: T1, M1BP
M1BP;TRF2 [1] = target: T2, M1BP;TRF2
M1BP;TRF2 [2] = target: T2, M1BP;TRF2; remark: listed apart in the source

Row | Binder | binding result (M1BP) | binding result (M1BP;TRF2 [1]) | binding result (M1BP;TRF2 [2])
1 | B1 | binds | binds | –
2 | B2 | no binding | – | no binding
3 | B3 | binds | binds | –
4 | B4 | no binding | – | no binding
